This note sets out measurements from the supplement of paper PMC7125110.

± gives the standard error. Variants at the floor of the assay were thinned out.

Sequences and labels used below:
B1: glmS ribozyme (parent)
chain: AUAAAAGCGCCAGAACUACAGAAAUGUAGUUGACGAGGAGGAGGUUUAUCGAAUUUUCGGCGGAUGCCUCCAAA

Settings in all cases: with glucosamine-6-phosphate
In data set [1] the parent is B1. The data set can be described thus: self-cleavage kobs at 40 uM GlcN6P; higher = faster cleavage; RNA array. In short, it runs like this: (§1)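 Tracking of barcoded ribozyme variants used a hybridised Cy3 probe at 37 °C, after in situ transcription by E. coli RNA polymerase on sequenced MiSeq chips. The flowed solution held 40 μM to 10 mM glucosamine-6-phosphate in HEPES/KCl/Mg(OAc)2 buffer, and imaging ran over ~14 h. kobs was taken from exponential decay fits of normalised per-tile medians, and kcat and KM from weighted Michaelis–Menten fits.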

Data set [2] covers variants of B1. The data set can be described thus: self-cleavage kobs at 10000 uM GlcN6P; higher = faster cleavage; RNA array. In short, it runs like this:
as §1

The variants in data set [3] derive from B1. Put plainly: self-cleavage kobs at 160 uM GlcN6P; higher = faster cleavage; RNA array. An outline of the steps: as §1
Data set [4] covers variants of B1. Put plainly: self-cleavage kobs at 640 uM GlcN6P; higher = faster cleavage; RNA array. In short, it runs like this:
as §1

The variants in data set [5] derive from B1. Put plainly: self-cleavage kobs at 2500 uM GlcN6P; higher = faster cleavage; RNA array. In short, it runs like this: as §1

A15C G32U G40U: the “self-cleavage kobs at 40 uM GlcN6P” value in the data set with glucosamine-6-phosphate [1] was below 1e-05 s⁻¹. The “self-cleavage kobs at 10000 uM GlcN6P” value in the data set with glucosamine-6-phosphate [2] amounted to 5.23e-05 ± 1.4e-05 s⁻¹.

For A33U G37C U45C A64C, in the data set with glucosamine-6-phosphate [1], the “self-cleavage kobs at 40 uM GlcN6P” value was below 1e-05 s⁻¹. Further, in the data set with glucosamine-6-phosphate [2], the “self-cleavage kobs at 10000 uM GlcN6P” value was below 1e-05 s⁻¹.

For the variant A14C A64C G66A, the “self-cleavage kobs at 40 uM GlcN6P” value in the data set with glucosamine-6-phosphate [1] is below 1e-05 s⁻¹. Further, the “self-cleavage kobs at 160 uM GlcN6P” value with glucosamine-6-phosphate [3] is below 1e-05 s⁻¹.

Regarding G7A G32A G51A G62C C68A, the “self-cleavage kobs at 40 uM GlcN6P” value with glucosamine-6-phosphate [1] was below 1e-05 s⁻¹. Moreover, in the data set with glucosamine-6-phosphate [3], the “self-cleavage kobs at 160 uM GlcN6P” value was below 1e-05 s⁻¹.

Regarding C10U U31C C34U, the “self-cleavage kobs at 40 uM GlcN6P” value with glucosamine-6-phosphate [1] was below 1e-05 s⁻¹.

A12G G40C G43C: the “self-cleavage kobs at 40 uM GlcN6P” value with glucosamine-6-phosphate [1] was below 1e-05 s⁻¹. The “self-cleavage kobs at 640 uM GlcN6P” value with glucosamine-6-phosphate [4] is below 1e-05 s⁻¹. The “self-cleavage kobs at 10000 uM GlcN6P” value with glucosamine-6-phosphate [2] was below 1e-05 s⁻¹.

As for G29A C71U, the “self-cleavage kobs at 40 uM GlcN6P” value in the data set with glucosamine-6-phosphate [1] was determined as 0.000141 ± 2e-05 s⁻¹. Also, the “self-cleavage kobs at 160 uM GlcN6P” value with glucosamine-6-phosphate [3] came to 0.000261 ± 8.2e-05 s⁻¹. Further, in the data set with glucosamine-6-phosphate [4], the “self-cleavage kobs at 640 uM GlcN6P” value amounted to 0.000549 ± 7.9e-05 s⁻¹. Besides, the “self-cleavage kobs at 2500 uM GlcN6P” value with glucosamine-6-phosphate [5] is 0.00526 ± 0.0012 s⁻¹. In addition, in the data set with glucosamine-6-phosphate [2], the “self-cleavage kobs at 10000 uM GlcN6P” value amounted to 0.00436 ± 0.00077 s⁻¹.

As to G9C C16U U47G C61U, in the data set with glucosamine-6-phosphate [1], the “self-cleavage kobs at 40 uM GlcN6P” value is below 1e-05 s⁻¹. Also, the “self-cleavage kobs at 10000 uM GlcN6P” value with glucosamine-6-phosphate [2] is below 1e-05 s⁻¹.

Consider A33C G41C U47C A53G U54C U65G C70U, for which the “self-cleavage kobs at 40 uM GlcN6P” value with glucosamine-6-phosphate [1] is below 1e-05 s⁻¹. Also, in the data set with glucosamine-6-phosphate [2], the “self-cleavage kobs at 10000 uM GlcN6P” value is below 1e-05 s⁻¹.

In the case of G9A G38C, the “self-cleavage kobs at 40 uM GlcN6P” value in the data set with glucosamine-6-phosphate [1] is below 1e-05 s⁻¹. Besides, the “self-cleavage kobs at 160 uM GlcN6P” value in the data set with glucosamine-6-phosphate [3] was below 1e-05 s⁻¹. Further, the “self-cleavage kobs at 640 uM GlcN6P” value in the data set with glucosamine-6-phosphate [4] is below 1e-05 s⁻¹.

As to A12C U49A, in the data set with glucosamine-6-phosphate [1], the “self-cleavage kobs at 40 uM GlcN6P” value is below 1e-05 s⁻¹. In addition, the “self-cleavage kobs at 160 uM GlcN6P” value with glucosamine-6-phosphate [3] is below 1e-05 s⁻¹.

For A6C G32C, in the data set with glucosamine-6-phosphate [1], the “self-cleavage kobs at 40 uM GlcN6P” value was below 1e-05 s⁻¹. In the data set with glucosamine-6-phosphate [3], the “self-cleavage kobs at 160 uM GlcN6P” value is below 1e-05 s⁻¹. For the same variant, the “self-cleavage kobs at 2500 uM GlcN6P” value with glucosamine-6-phosphate [5] is below 1e-05 s⁻¹. Further, the “self-cleavage kobs at 10000 uM GlcN6P” value with glucosamine-6-phosphate [2] was below 1e-05 s⁻¹.

As for C8U G63C, in the data set with glucosamine-6-phosphate [1], the “self-cleavage kobs at 40 uM GlcN6P” value was below 1e-05 s⁻¹. For the same variant, in the data set with glucosamine-6-phosphate [3], the “self-cleavage kobs at 160 uM GlcN6P” value was below 1e-05 s⁻¹. The “self-cleavage kobs at 640 uM GlcN6P” value with glucosamine-6-phosphate [4] is below 1e-05 s⁻¹. Further, the “self-cleavage kobs at 2500 uM GlcN6P” value with glucosamine-6-phosphate [5] is below 1e-05 s⁻¹. Also, the “self-cleavage kobs at 10000 uM GlcN6P” value in the data set with glucosamine-6-phosphate [2] was below 1e-05 s⁻¹.

Turning to G13U A52C, in the data set with glucosamine-6-phosphate [1], the “self-cleavage kobs at 40 uM GlcN6P” value is below 1e-05 s⁻¹. Further, the “self-cleavage kobs at 2500 uM GlcN6P” value with glucosamine-6-phosphate [5] was below 1e-05 s⁻¹. Moreover, the “self-cleavage kobs at 10000 uM GlcN6P” value with glucosamine-6-phosphate [2] is below 1e-05 s⁻¹.

Consider U45G G59C, for which the “self-cleavage kobs at 40 uM GlcN6P” value with glucosamine-6-phosphate [1] is below 1e-05 s⁻¹. The “self-cleavage kobs at 160 uM GlcN6P” value with glucosamine-6-phosphate [3] is below 1e-05 s⁻¹. Also, the “self-cleavage kobs at 640 uM GlcN6P” value with glucosamine-6-phosphate [4] was below 1e-05 s⁻¹. Further, the “self-cleavage kobs at 2500 uM GlcN6P” value in the data set with glucosamine-6-phosphate [5] is below 1e-05 s⁻¹.

Regarding C50G G51U, the “self-cleavage kobs at 40 uM GlcN6P” value with glucosamine-6-phosphate [1] was below 1e-05 s⁻¹. Moreover, the “self-cleavage kobs at 160 uM GlcN6P” value in the data set with glucosamine-6-phosphate [3] is below 1e-05 s⁻¹.

In the case of G35A C50G C71U, the “self-cleavage kobs at 40 uM GlcN6P” value with glucosamine-6-phosphate [1] amounted to 0.000138 ± 3.5e-05 s⁻¹. Further, in the data set with glucosamine-6-phosphate [5], the “self-cleavage kobs at 2500 uM GlcN6P” value came out at 8.9e-05 ± 3.1e-05 s⁻¹. The “self-cleavage kobs at 10000 uM GlcN6P” value with glucosamine-6-phosphate [2] was 0.000191 ± 3.6e-05 s⁻¹.

As to G13U C16U C70U, the “self-cleavage kobs at 40 uM GlcN6P” value with glucosamine-6-phosphate [1] was determined as 5.86e-05 ± 1.3e-05 s⁻¹. Also, the “self-cleavage kobs at 10000 uM GlcN6P” value with glucosamine-6-phosphate [2] is 0.00165 ± 0.00029 s⁻¹.

With A36G A39U G43C C61G, the “self-cleavage kobs at 40 uM GlcN6P” value with glucosamine-6-phosphate [1] is below 1e-05 s⁻¹.

With A48C C61A, the “self-cleavage kobs at 40 uM GlcN6P” value with glucosamine-6-phosphate [1] is below 1e-05 s⁻¹. In addition, the “self-cleavage kobs at 640 uM GlcN6P” value with glucosamine-6-phosphate [4] was below 1e-05 s⁻¹. Moreover, in the data set with glucosamine-6-phosphate [2], the “self-cleavage kobs at 10000 uM GlcN6P” value was below 1e-05 s⁻¹.

For the variant G59C C61G, the “self-cleavage kobs at 40 uM GlcN6P” value with glucosamine-6-phosphate [1] was below 1e-05 s⁻¹. Besides, the “self-cleavage kobs at 160 uM GlcN6P” value with glucosamine-6-phosphate [3] is below 1e-05 s⁻¹. Also, the “self-cleavage kobs at 10000 uM GlcN6P” value with glucosamine-6-phosphate [2] is below 1e-05 s⁻¹.

As to A15U C34A A52U, in the data set with glucosamine-6-phosphate [1], the “self-cleavage kobs at 40 uM GlcN6P” value is below 1e-05 s⁻¹. Moreover, in the data set with glucosamine-6-phosphate [2], the “self-cleavage kobs at 10000 uM GlcN6P” value was below 1e-05 s⁻¹.

For the variant C8A A42U G62U, the “self-cleavage kobs at 40 uM GlcN6P” value with glucosamine-6-phosphate [1] is below 1e-05 s⁻¹. For the same variant, the “self-cleavage kobs at 2500 uM GlcN6P” value in the data set with glucosamine-6-phosphate [5] is below 1e-05 s⁻¹.

In the case of A12U G32U A53G, the “self-cleavage kobs at 40 uM GlcN6P” value with glucosamine-6-phosphate [1] was below 1e-05 s⁻¹. In addition, the “self-cleavage kobs at 2500 uM GlcN6P” value with glucosamine-6-phosphate [5] was 0.000144 ± 3.6e-05 s⁻¹. Further, the “self-cleavage kobs at 10000 uM GlcN6P” value with glucosamine-6-phosphate [2] is 0.000231 ± 6.4e-05 s⁻¹.

Turning to U45C U69G C71U, the “self-cleavage kobs at 40 uM GlcN6P” value with glucosamine-6-phosphate [1] was below 1e-05 s⁻¹.
